The test deals with Schaffer collateral (SC) synapses in mouse hippocampus. The test can be described thus: fEPSP field recordings at Schaffer collateral synapses in hippocampal slices. In kind it is cell-based. Here is the method:
We assessed the effect of sAPPα on the synaptic properties of Schaffer collateral (SC) synapses in mouse hippocampus. […] As change in probability of neurotransmitter release inversely correlates with a change in short-term facilitation, we applied a burst of 5 stimuli at 3 different frequencies (20, 50, and 100 Hz) to induce short-term facilitation at the SC. […] Preincubation with the GABABR antagonist CGP54626 (CGP, 10 μM) for 20 min before the incubation with sAPPα blocked its effects on the peak amplitude of the fESPS and the input/output slopes (FIG. 10f-g). Accordingly, CGP occluded sAPPα-induced augmentation of short-term facilitation at 20, 50, and 100 Hz burst frequencies (FIG. 10h-j).
On the day of recording the brain of a 2-month-old Balb/c male mouse was quickly removed and 400 μm-thick horizontal slices were prepared in an ice-cold oxygenated buffer containing (in mM): sucrose, 182; KCl, 2.5; MgSO4, 2; NaH2PO4, 1.25; NaHCO3, 25; CaCl2), 0.8; MgCl2, 5; glucose, 25; ascorbate, 1; HEPES, 20. The slicing procedure was performed using a Leica VT1200 vibrating microtome. Slices were then transferred to a submerged recovery chamber at room temperature containing oxygenated (95% 02 and 5% C02) storage artificial cerebrospinal fluid (ACSF) for 30 min before the incubations (see below). The storage ACSF contained, in mM: NaCl, 100; KCl, 2.5; MgSO4, 2; NaH2PO4, 1.25; NaHCO3, 25; CaCl2), 1.2; MgCl2, 3; glucose, 20; ascorbate, 1; sodium pyruvate,3 and HEPES, 20. The slices were incubated in the incubation chambers perfused with oxygenated storage ACSF containing the experimental agents for 90 min before performing field recordings: In the incubation chamber, control slices were perfused with normal storage ACSF while sAPPα slices were perfused with storage ACSF containing 1 μM sAPPα. CGP slices were perfused with storage ACSF containing 10 μM CGP54626 (Tocris). CGP+sAPPα slices were preincubated in the chamber perfused with ACSF+CGP before being transferred into the chamber perfused with storage ACSF implemented with 10 μM CGP54626+1 μM sAPPα. All recordings were performed at 32-33° C. in a recording chamber perfused with ACSF (4 ml/min) on the stage of an Olympus BX51WI microscope equipped with IR optics and oblique illumination. Recording ACSF contains, in mM: NaCl, 129; KCl, 2.5; CaCl2), 1.2; MgCl2, 1.2; NaHCO3, 25; NaH2PO4, 1.25; glucose, 15. Stimulation of the Schaffer-collateral was delivered through a glass suction electrode (10-20 μm tip) filled with ACSF. fEPSPs were recorded using a glass pipette containing ACSF (1-2 MΩ) from proximal synapses in the CA1 stratum radiatum. Field recording experiments were analyzed using Clampfit.

B1: sAPPα: soluble amyloid precursor protein α ectodomain; mouse APP695 18-612aa, Fc tag cleaved (protein)
chain: LEVPTDGNAGLLAEPQIAMFCGKLNMHMNVQNGKWESDPSGTKTCIGTKEGILQYCQEVYPELQITNVVEANQPVTIQNWCKRGRKQCKTHTHIVIPYRCLVGEFVSDALLVPDKCKFLHQERMDVCETHLHWHTVAKETCSEKSTNLHDYGMLLPCGIDKFRGVEFVCCPLAEESDSVDSADAEEDDSDVWWGGADTDYADGGEDKVVEVAEEEEVADVEEEEADDDEDVEDGDEVEEEAEEPYEEATERTTSTATTTTTTTESVEEVVRVPTTAASTPDAVDKYLETPGDENEHAHFQKAKERLEAKHRERMSQVMREWEEAERQAKNLPKADKKAVIQHFQEKVESLEQEAANERQQLVETHMARVEAMLNDRRRLALENYITALQAVPPRPHHVFNMLKKYVRAEQKDRQHTLKHFEHVRMVDPKKAAQIRSQVMTHLRVIYERMNQSLSLLYNVPAVAEEIQDEVDELLQKEQNYSDDVLANMISEPRISYGNDALMPSLTETKTTVELLPVNGEFSLDDLQPWHPFGVDSVPANTENEVEPVDARPAADRGLTTRPGSGLTNIKTEEISEVKMDAEFGHDSGFEVRHQK
Regarding B1, the “effect on fEPSP amplitude” value (1 μM sAPPα incubation, 0.1 Hz stimulation) is “reducing fEPSP amplitude”. In addition, the “decrease in the slope of the input/output curve” value (1 μM sAPPα incubation, 0.1 Hz stimulation, 30-150 μA) came out at 23%. Further, the “short-term facilitation versus control slices” value (burst of 5 stimuli at 20, 50 and 100 Hz, 1 μM sAPPα) is given as “significantly higher”.

The record behind these values is US10829528B2, “Therapeutic agents for neurological and psychiatric disorders” (VIB VZW, priority 2016, dated 2020).
